# B1: SH3 domain-binding protein 4 (Homo sapiens), Q9P0V3 (parent)
# chain: MAAQRIRAANSNGLPRCKSEGTLIDLSEGFSETSFNDIKVPSPSALLVDNPTPFGNAKEVIAIKDYCPTNFTTLKFSKGDHLYVLDTSGGEWWYAHNTTEMGYIPSSYVQPLNYRNSTLSDSGMIDNLPDSPDEVAKELELLGGWTDDKKVPGRMYSNNPFWNGVQTNPFLNGNVPVMPSLDELNPKSTVDLLLFDAGTSSFTESSSATTNSTGNIFDELPVTNGLHAEPPVRRDNPFFRSKRSYSLSELSVLQAKSDAPTSSSFFTGLKSPAPEQFQSREDFRTAWLNHRKLARSCHDLDLLGQSPGWGQTQAVETNIVCKLDSSGGAVQLPDTSISIHVPEGHVAPGETQQISMKALLDPPLELNSDRSCSISPVLEVKLSNLEVKTSIILEMKVSAEIKNDLFSKSTVGLQCLRSDSKEGPYVSVPLNCSCGDTVQAQLHNLEPCMYVAVVAHGPSILYPSTVWDFINKKVTVGLYGPKHIHPSFKTVVTIFGHDCAPKTLLVSEVTRQAPNPAPVALQLWGKHQFVLSRPQDLKVCMFSNMTNYEVKASEQAKVVRGFQLKLGKVSRLIFPITSQNPNELSDFTLRVQVKDDQEAILTQFCVQTPQPPPKSAIKPSGQRRFLKKNEVGKIILSPFATTTKYPTFQDRPVSSLKFGKLLKTVVRQNKNHYLLEYKKGDGIALLSEERVRLRGQLWTKEWYIGYYQGRVGLVHTKNVLVVGRARPSLCSGPELSTSVLLEQILRPCKFLTYIYASVRTLLMENISSWRSFADALGYVNLPLTFFCRAELDSEPERVASVLEKLKEDCNNTENKERKSFQKELVMALLKMDCQGLVVRLIQDFVLLTTAVEVAQRWRELAEKLAKVSKQQMDAYESPHRDRNGVVDSEAMWKPAYDFLLTWSHQIGDSYRDVIQELHLGLDKMKNPITKRWKHLTGTLILVNSLDVLRAAAFSPADQDDFVI
# B2: SH3 domain-binding protein 4 (Homo sapiens), Q9P0V3 (parent)
# chain: B1 chain
# partner: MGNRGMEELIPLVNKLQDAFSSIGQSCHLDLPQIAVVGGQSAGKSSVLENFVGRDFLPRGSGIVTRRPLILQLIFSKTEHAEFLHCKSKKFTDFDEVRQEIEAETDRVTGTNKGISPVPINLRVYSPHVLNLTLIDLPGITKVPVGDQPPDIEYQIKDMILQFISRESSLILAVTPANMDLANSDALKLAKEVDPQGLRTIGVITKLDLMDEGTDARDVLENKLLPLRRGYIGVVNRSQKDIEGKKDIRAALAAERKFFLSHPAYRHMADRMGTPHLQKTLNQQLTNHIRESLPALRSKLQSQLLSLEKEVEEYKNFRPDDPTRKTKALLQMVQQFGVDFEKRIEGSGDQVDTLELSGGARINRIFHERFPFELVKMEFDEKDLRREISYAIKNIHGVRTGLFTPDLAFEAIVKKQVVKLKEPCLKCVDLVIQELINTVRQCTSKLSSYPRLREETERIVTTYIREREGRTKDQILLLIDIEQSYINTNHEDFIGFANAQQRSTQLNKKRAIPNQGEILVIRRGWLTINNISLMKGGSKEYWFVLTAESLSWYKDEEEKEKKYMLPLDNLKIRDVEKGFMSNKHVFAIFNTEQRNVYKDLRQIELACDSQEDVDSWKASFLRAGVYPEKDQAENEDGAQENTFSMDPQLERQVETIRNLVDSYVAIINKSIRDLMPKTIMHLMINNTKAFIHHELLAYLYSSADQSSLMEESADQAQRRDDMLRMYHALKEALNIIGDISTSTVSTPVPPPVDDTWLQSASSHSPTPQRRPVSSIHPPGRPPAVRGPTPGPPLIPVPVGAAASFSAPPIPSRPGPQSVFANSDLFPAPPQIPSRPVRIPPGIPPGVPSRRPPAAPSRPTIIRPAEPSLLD
# Variants of: B1
# Details: with tfr1_human TFRC
row,effect of a mutation on the interaction,Variant
1,disrupting interaction,W92A

# Variants of: B2
# Details: with dyn2_human DNM2, P50570
row,effect of a mutation on the interaction,Variant
1,disrupting interaction,W92A

# Source: IntAct's records for PubMed 16325581
